{"source": "patent US20140005098A1", "key": {"[1]": {"molecular_target": "IGF-I (UniProt P05019)", "sequence (P05019 49-118 limits assumed)": "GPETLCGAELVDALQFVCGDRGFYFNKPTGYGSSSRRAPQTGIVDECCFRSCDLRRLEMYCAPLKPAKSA", "experiment": "competition binding with 125I-IGF-I tracer and unlabelled IGF-I as competitor, Scatchard analysis"}, "[2]": {"molecular_target": "IGF-II (UniProt P01344)", "sequence (P01344 25-91 limits assumed)": "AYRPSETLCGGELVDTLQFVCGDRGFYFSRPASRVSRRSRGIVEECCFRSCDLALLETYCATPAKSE", "experiment": "competition binding with 125I-IGF-I tracer and unlabelled IGF-II as competitor, Scatchard analysis"}}, "data": [{"substance": "mini-IGFBP-3 (mutated recombinant IGFBP-3; H6-mini-IGFBP-3) (from UniProt P17936 28-121; P17936 207-291)", "values": [{"measurement": "Ka", "setting": "[1]", "value": "2.4e+10", "unit": "M⁻¹"}, {"measurement": "Ka", "setting": "[2]", "value": "3.14e+10", "unit": "M⁻¹"}]}]}
